Molecular target: human TRPM8 fused C-terminally to TEV-GFP-His8-tag (human), Q7Z2W7
Assay: SDS-PAGE with in-gel GFP fluorescence; crude S. cerevisiae membranes separated by SDS-PAGE, GFP fluorescence of the fusion read in the gel
Conditions: remark: other sources report otherwise

- stoichiometry N: 2
B1: human TRPM8 fused C-terminally to TEV-GFP-His8-tag, Q7Z2W7 1-1104 (natural protein)
chain: MSFRAARLSMRNRRNDTLDSTRTLYSSASRSTDLSYSESDLVNFIQANFKKRECVFFTKDSKATENVCKCGYAQSQHMEGTQINQSEKWNYKKHTKEFPTDAFGDIQFETLGKKGKYIRLSCDTDAEILYELLTQHWHLKTPNLVISVTGGAKNFALKPRMRKIFSRLIYIAQSKGAWILTGGTHYGLMKYIGEVVRDNTISRSSEENIVAIGIAAWGMVSNRDTLIRNCDAEGYFLAQYLMDDFTRDPLYILDNNHTHLLLVDNGCHGHPTVEAKLRNQLEKYISERTIQDSNYGGKIPIVCFAQGGGKETLKAINTSIKNKIPCVVVEGSGQIADVIASLVEVEDALTSSAVKEKLVRFLPRTVSRLPEEETESWIKWLKEILECSHLLTVIKMEEAGDEIVSNAISYALYKAFSTSEQDKDNWNGQLKLLLEWNQLDLANDEIFTNDRRWESADLQEVMFTALIKDRPKFVRLFLENGLNLRKFLTHDVLTELFSNHFSTLVYRNLQIAKNSYNDALLTFVWKLVANFRRGFRKEDRNGRDEMDIELHDVSPITRHPLQALFIWAILQNKKELSKVIWEQTRGCTLAALGASKLLKTLAKVKNDINAAGESEELANEYETRAVELFTECYSSDEDLAEQLLVYSCEAWGGSNCLELAVEATDQHFIAQPGVQNFLSKQWYGEISRDTKNWKIILCLFIIPLVGCGFVSFRKKPVDKHKKLLWYYVAFFTSPFVVFSWNVVFYIAFLLLFAYVLLMDFHSVPHPPELVLYSLVFVLFCDEVRQWYVNGVNYFTDLWNVMDTLGLFYFIAGIVFRLHSSNKSSLYSGRVIFCLDYIIFTLRLIHIFTVSRNLGPKIIMLQRMLIDVFFFLFLFAVWMVAFGVARQGILRQNEQRWRWIFRSVIYEPYLAMFGQVPSDVDGTTYDFAHCTFTGNESKPLCVELDEHNLPRFPEWITIPLVCIYMLSTNILLVNLLVAMFGYTVGTVQENNDQVWKFQRYFLVQEYCSRLNIPFPFIVFAYFYMVVKKCFKCCCKEKNMESSVCCFKNEDNETLAWEGVMKENYLVKINTKANDTSEEMRHRFRQLDTKLNDLKGLLKEIANKIK

From publication PMC6406451
